Experiments:
Format in all cases: cell-based
[1] = system: MKN45 gastric cancer cell line; experiment: Synthetic lethal screening: siRNA plus anti-c-Met antibody, sensitization index (SI) by CellTiter Blue; conditions: MKN45 cells, 5 days
Description: To search genes capable of increasing efficacy when suppressed together with an anti-c-Met antibody, synthetic lethal screening was conducted using MKN45 gastric cancer cell line (JCRB, JCRB0254). The synthetic lethal screening was conducted using a total of 1310 genes related to c-Met including 638 genes of EGFR library (Science Signaling, 3, ra67).
First, 0.3 ul of RNAiMax (Life Technologies) and a mixture of two different kinds of 20 nM siRNAs (Qiagen) were added to a 96-well plate, which was incubated at a room temperature for 15 min, wherein RNAiMax and siRNAs were diluted in Opti-MEM (Life Technologies) and a total mixture volume was adjusted to reach 22 ul or so. 78 ul of MKN45 cells diluted in a 5% FBS-containing RPMI1640 medium (GIBCO) were seeded onto each well of the 96-well plate so that each well contained 5000 cells. […]
After 5 days, 20 ul of a diluting solution of CellTiter Blue (Promega, G8081) and HBSS at 1:1 was added to each well, which was incubated at 37° C. for 4 hours. Then, the number of cells was counted via fluorescence signals (560/590 nm), which were measured using Envision 2104 Multi-label Reader (Perkin Elmer).
Since an increase degree in the efficacy of an anti-c-Met antibody to be caused by the expression suppression of each gene was measured as a reduction in cell viability, SI (sensitization index) was calculated. […]

[2] = system: HCC1806 breast cancer cells; experiment: Cell viability, CellTiter Glo, combination with L3-1Y/IgG2 antibody
Description: (§1) The efficacy of the combination administration of ITGB3 siRNA and L3-1Y/IgG2 antibody was examined in a breast cancer cell line on which the anti-c-Met antibody alone has no effects. For this, HCC1806 (ATCC, CRL-2335) and HCC1954 (ATCC, CRL-2338) cells were used.
(§2) As a control group, All Negative control siRNA (Qiagen, cat. no. 1027281) was used, and as a target siRNA, a mixture of two kinds of siRNAs (see Table 7) that had effects during the screening was used. Transfection was carried out by the same procedures as Example 3.1 and after 24 hours, the cultured cells were treated with L3-1Y/IgG2 antibody at 0 ug/ml, 0.016 ug/ml, 0.08 ug/ml, 0.4 ug/ml, or 2 ug/ml. 72 hours later after the treatment, 100 uL of CellTiter Glo solution (Promega, G7572) was added to each well, which was allowed to stay at a room temperature for 30 min. The number of cells was counted via luminescence signals, which were recorded using Envision 2104 Multi-label Reader (Perkin Elmer).
To verify the effect of the combination therapy using ITGB3 inhibitor and anti-c-Met antibody in breast cancer cells on which the anti-c-Met antibody has no effects, HCC1806 (ATCC, CRL-2335) cells were used. The HCC 1806 cells are a cell line known to have high amounts of c-Met.
5000 cells of HCC1806 cells were seeded onto a 96-well plate, and 24 hours after, the plate was treated with L3-1Y/IgG2 antibody and an ITGB3 inhibitor, cilengitide (Merck KGaA, EMD 121974). 72 hours later after the treatment, a change in the number of cells was measured using CellTiter Glo assay. Cilengitide was treated at a fixed concentration of 10 uM, and the L3-1Y/IgG2 antibody was treated by ⅕ dilution each time starting from 2 ug/ml. For comparison, the same test was conducted using L3-1Y/IgG2 antibody alone.
The efficacy of combination administration was examined in a breast cancer cell line on which the anti-c-Met antibody has no effects. For this, HCC1806 (ATCC, CRL-2335) cells were used.
5000 HCC1806 cells were seeded onto a 96-well plate and 24 hours after, the plate was treated with L3-1Y/IgG2 antibody and an AKT inhibitor, MK-2206 (Merck & Co Inc) and 72 hours later after the antibody treatment, a change in the number of cells was measured using CellTiter Glo assay. MK-2206 was treated at a fixed concentration of 10 uM, and the L3-1Y/IgG2 antibody was treated by ⅕ dilution each time starting from 2 ug/ml. For comparison, the same test was conducted using L3-1Y/IgG2 antibody alone.

[3] = system: HCC1954 breast cancer cells; experiment: as above; conditions: L3-1Y/IgG2 antibody alone (negative control siRNA)
Description: as §1, §2

B1: L3-1Y/IgG2: anti-c-Met antibody: huAbF46-H4-A1 heavy chain variable region, human IgG2 hinge and constant region, kappa light chain with H36Y (antibody)
heavy: EVQLVESGGGLVQPGGSLRLSCAASGFTFTDYYMSWVRQAPGKGLEWLGFIRNKANGYTTEYSASVKGRFTISRDNSKNTLYLQMNSLRAEDTAVYYCARDNWFAYWGQGTLVTVSSASTKGPSVFPLAPCSRSTSESTAALGCLVKDYFPEPVTVSWNSGALTSGVHTFPAVLQSSGLYSLSSVVTVPSSNFGTQTYTCNVDHKPSNTKVDKTVERKCCVECPPCPAPPVAGPSVFLFPPKPKDTLMISRTPEVTCVVVDVSHEDPEVQFNWYVDGVEVHNAKTKPREEQFNSTFRVVSVLTVVHQDWLNGKEYKCKVSNKGLPAPIEKTISKTKGQPREPQVYTLPPSREEMTKNQVSLTCLVKGFYPSDIAVEWESNGQPENNYKTTPPMLDSDGSFFLYSKLTVDKSRWQQGNVFSCSVMHEALHNHYTQKSLSLSPGK
light: DIQMTQSPSSLSASVGDRVTITCKSSQSLLASGNQNNYLAWYQQKPGKAPKMLIIWASTRVSGVPSRFSGSGSGTDFTLTISSLQPEDFATYYCQQSYSRPYTFGQGTKVEIKRTVAAPSVFIFPPSDEQLKSGTASVVCLLNNFYPREAKVQWKVDNALQSGNSQESVTEQDSKDSTYSLSSTLTLSKADYEKHKVYACEVTHQGLSSPVTKSFNRGEC
- final concentration that is approximately IC25~IC35 [1]: ~0.0625 μl/ml
- growth inhibitory effect (cell viability) ([2]; L3-1Y/IgG2 antibody alone (1/5 dilutions from 2 ug/ml), 72 h): did not occur
- cancer cell growth inhibitory efficacy (cell viability) ([2]; L3-1Y/IgG2 antibody alone (negative control siRNA)): did not occur
- cancer cell growth inhibitory efficacy (cell viability) [3]: did not occur

— patent US9567641B2, “Combination therapy for the treatment of cancer using an anti-C-met antibody” (SAMSUNG ELECTRONICS CO., LTD., priority 2013, dated 2017)
